How the values were obtained:
Test in all cases: IEDB peptide-MHC binding, purified MHC/competitive/radioactivity; ≥ and ≤ were set here for values at or beyond the usual limits of such assays
HLA-A*02:03 = target: HLA-A*02:03
HLA-A*02:06 = target: HLA-A*02:06
HLA-A*02:01 = target: HLA-A*02:01
HLA-A*02:02 = target: HLA-A*02:02
HLA-A*68:02 = target: HLA-A*68:02
[1] = source organism: Vaccinia virus WR
[2] = source organism: Mammarenavirus machupoense
[3] = source organism: Hepacivirus hominis
[4] = source organism: Mammarenavirus choriomeningitidis
[5] = source organism: Influenza A virus
[6] = source organism: Mammarenavirus whitewaterense

Row | Sequence | IC50 (HLA-A*02:03; [1]) | IC50 (HLA-A*02:06; [1]) | IC50 (HLA-A*02:01; [1]) | IC50 (HLA-A*02:02; [1]) | IC50 (HLA-A*68:02; [1]) | further results
1 | ITMTTVYHI |  |  |  |  |  | IC50 (HLA-A*02:03; source organism: SARS-CoV1): 7.2 nM; IC50 (HLA-A*02:06; source organism: SARS-CoV1): 2.3 nM; IC50 (HLA-A*02:01; source organism: SARS-CoV1): 8.2 nM; IC50 (HLA-A*02:02; source organism: SARS-CoV1): 19 nM; IC50 (HLA-A*68:02; source organism: SARS-CoV1): 6.1 nM
2 | YVSPTEMVDV | 50 nM | 5.2 nM | 21 nM | 63 nM | 235 nM | 
3 | FLPQIGGEA | 121 nM | 96 nM | 1360 nM | 21 nM | 149 nM | 
4 | RVLYDEFVTI | 178 nM | 6.6 nM | 28 nM | 153 nM | 1640 nM | 
5 | AADLTQIFEV | 404 nM | 11 nM | 17 nM | 1240 nM | 4350 nM | 
6 | TLISSDGARV | 133 nM | 1220 nM | 621 nM | 142 nM | 542 nM | 
7 | DIISSKQYPA | 2430 nM | 3100 nM | 2890 nM | 552 nM | 220 nM | 
8 | IMRVMANNV | 1260 nM | 2500 nM | 311 nM | 396 nM | 1180 nM | 
9 | KSFFWFNEV |  |  |  |  |  | IC50 (HLA-A*02:03; [2]): 265 nM; IC50 (HLA-A*02:06; [2]): 3.2 nM; IC50 (HLA-A*02:01; [2]): 6.5 nM; IC50 (HLA-A*02:02; [2]): 62 nM; IC50 (HLA-A*68:02; [2]): 84 nM
10 | NLTQLFKYV | 238 nM | 657 nM | 1180 nM | 320 nM | 4340 nM | 
11 | LIDFYLCFL |  |  |  |  |  | IC50 (HLA-A*02:03; source organism: SARS-CoV1): 61 nM; IC50 (HLA-A*02:06; source organism: SARS-CoV1): 11 nM; IC50 (HLA-A*02:01; source organism: SARS-CoV1): 0.9 nM; IC50 (HLA-A*02:02; source organism: SARS-CoV1): 8.3 nM; IC50 (HLA-A*68:02; source organism: SARS-CoV1): 93 nM
12 | YIFFASFYYI |  |  |  |  |  | IC50 (HLA-A*02:03; source organism: SARS-CoV1): 60 nM; IC50 (HLA-A*02:06; source organism: SARS-CoV1): 0.8 nM; IC50 (HLA-A*02:01; source organism: SARS-CoV1): 15 nM; IC50 (HLA-A*02:02; source organism: SARS-CoV1): 0.46 nM; IC50 (HLA-A*68:02; source organism: SARS-CoV1): 2.2 nM
13 | VLVGGVLAAL |  |  |  |  |  | IC50 (HLA-A*02:03; [3]): 5 nM; IC50 (HLA-A*02:06; [3]): 141 nM; IC50 (HLA-A*02:01; [3]): 60 nM; IC50 (HLA-A*02:02; [3]): 11 nM; IC50 (HLA-A*68:02; [3]): 150 nM
14 | AVYNFATCGI |  |  |  |  |  | IC50 (HLA-A*02:03; [4]): 7.3 nM; IC50 (HLA-A*02:06; [4]): 25 nM; IC50 (HLA-A*02:01; [4]): 137 nM; IC50 (HLA-A*02:02; [4]): 25 nM; IC50 (HLA-A*68:02; [4]): 13 nM
15 | MQIRGFVYFV |  |  |  |  |  | IC50 (HLA-A*02:03; [5]): 3.6 nM; IC50 (HLA-A*02:06; [5]): 10 nM; IC50 (HLA-A*02:01; [5]): 15 nM; IC50 (HLA-A*02:02; [5]): 19 nM; IC50 (HLA-A*68:02; [5]): 25 nM
16 | IISLFYTFAI | 44 nM | 146 nM | 290 nM | 108 nM | 144 nM | 
17 | FVKENERVNV | 12 nM | 683 nM | 270 nM | 186 nM | 1290 nM | 
18 | SQFSYKELYV | 27 nM | 71 nM | 121 nM | 14 nM | 634 nM | 
19 | DLLNVTYNI | 194 nM | 1280 nM | 787 nM | 297 nM | 212 nM | 
20 | TVIKTLLEV |  |  |  |  |  | IC50 (HLA-A*02:03; [6]): 53 nM; IC50 (HLA-A*02:06; [6]): 17 nM; IC50 (HLA-A*02:01; [6]): 276 nM; IC50 (HLA-A*02:02; [6]): 2020 nM; IC50 (HLA-A*68:02; [6]): 2.8 nM
21 | MLFTKFFYL |  |  |  |  |  | IC50 (HLA-A*02:03; source organism: SARS-CoV1): 17 nM; IC50 (HLA-A*02:06; source organism: SARS-CoV1): 1.4 nM; IC50 (HLA-A*02:01; source organism: SARS-CoV1): 0.17 nM; IC50 (HLA-A*02:02; source organism: SARS-CoV1): 0.085 nM; IC50 (HLA-A*68:02; source organism: SARS-CoV1): 0.056 nM
22 | FIASAPQQL | 4.4 nM | 89 nM | 120 nM | 2 nM | 35 nM | 
23 | YASALVLLI |  |  |  |  |  | IC50 (HLA-A*02:03; source organism: SARS-CoV1): 4.9 nM; IC50 (HLA-A*02:06; source organism: SARS-CoV1): 8.7 nM; IC50 (HLA-A*02:01; source organism: SARS-CoV1): 13 nM; IC50 (HLA-A*02:02; source organism: SARS-CoV1): 3.2 nM; IC50 (HLA-A*68:02; source organism: SARS-CoV1): 10 nM
24 | ILRNYLRLYI | 0.9 nM | 65 nM | 1 nM | 0.39 nM | 2650 nM | 
25 | FTEGKINPLL | 595 nM | 86 nM | 162 nM | 150 nM | 243 nM | 
26 | MLSVVGFLV |  |  |  |  |  | IC50 (HLA-A*02:03; source organism: SARS-CoV1): 3.5 nM; IC50 (HLA-A*02:06; source organism: SARS-CoV1): 116 nM; IC50 (HLA-A*02:01; source organism: SARS-CoV1): 7.7 nM; IC50 (HLA-A*02:02; source organism: SARS-CoV1): 1 nM; IC50 (HLA-A*68:02; source organism: SARS-CoV1): 92 nM

Reference: the Immune Epitope Database (IEDB)
